Test results from US20170306005A1 (NASCIENT, published 2017).

Columns and labels:
[1] = target: T1, human tenascin-R rCd4-His-FBG (rat; human, UniProt P05540 207-392, limits assumed); assay: SPR, captured purified IgG4, 37 C; purified IgG4, full kinetics, SPR at 37 C
T1 construct: domain: domains 3 and 4; C-terminal FBG fusion; also called Hu TNR; human TNR rCd4-His-FBG; not shown: 6His tag
T1 sequence (chain (part 1 of 2)): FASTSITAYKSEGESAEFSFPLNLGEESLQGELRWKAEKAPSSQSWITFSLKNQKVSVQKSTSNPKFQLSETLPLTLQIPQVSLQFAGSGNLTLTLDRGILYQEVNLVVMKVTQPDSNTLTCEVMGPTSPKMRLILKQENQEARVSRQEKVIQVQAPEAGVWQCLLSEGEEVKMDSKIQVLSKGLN
T1 sequence (chain (part 2 of 2)): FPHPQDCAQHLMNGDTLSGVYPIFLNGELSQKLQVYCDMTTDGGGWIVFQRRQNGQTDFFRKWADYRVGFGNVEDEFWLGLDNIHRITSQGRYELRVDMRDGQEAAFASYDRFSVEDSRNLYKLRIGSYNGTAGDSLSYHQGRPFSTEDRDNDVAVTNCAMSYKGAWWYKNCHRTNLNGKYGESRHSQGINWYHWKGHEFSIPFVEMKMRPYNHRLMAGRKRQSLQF
Protocol: Detailed kinetic parameters were evaluated for the 9 prioritised IgG4 antibodies. Binding characteristics were determined for interaction with human, rat and dog TNC rCD4-His-FBG, and human TNR rCD4-His-FBG. Kinetic assays followed essentially the same protocols as for the off-rate determinations described above, with some modifications as follows. […] Purified anti-FBG IgG4 was diluted to a concentration of 3.5 nM in PBS, pH 7.4, 0.05% Tween-20 and injected into FC2 at a flow rate of 10 μl/min, 60 s contact time. […] Antigens were prepared by doubling dilution in PBS, pH 7.4, 0.05% Tween-20 (highest concentration 100 nM except mouse rCD4-His-FBG which was 7 nM). Assays were performed at 37° C. (30 μl/min, 120 s contact time; mouse rCD4-His-FBGFBG 10 μl/min, 60 s contact time), with both the flow cell and injection chamber equilibrated to this temperature. As before, kinetic parameters were determined by reference cell subtraction and fitting the sensogram experimental data assuming a 1:1 interaction using BIAevaluation software (GE, BR-1005-97).

[2] = target: T2, human tenascin-C rCd4-His-FBG (rat; human, UniProt P05540 207-392, limits assumed); assay: SPR off-rate screen, captured IgG4 supernatant, 25 C
T2 construct: domain: domains 3 and 4; C-terminal FBG fusion; biotinylated in the ELISA and HTRF screens; also called Hu TNC; human TNC rCd4-His-FBG; not shown: 6His tag
T2 sequence (chain (part 1 of 2)): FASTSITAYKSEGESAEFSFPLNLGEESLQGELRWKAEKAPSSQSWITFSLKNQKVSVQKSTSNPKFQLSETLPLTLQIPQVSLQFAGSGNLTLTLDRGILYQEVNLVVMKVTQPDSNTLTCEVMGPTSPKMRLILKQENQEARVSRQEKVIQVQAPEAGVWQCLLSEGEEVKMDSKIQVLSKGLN
T2 sequence (chain (part 2 of 2)): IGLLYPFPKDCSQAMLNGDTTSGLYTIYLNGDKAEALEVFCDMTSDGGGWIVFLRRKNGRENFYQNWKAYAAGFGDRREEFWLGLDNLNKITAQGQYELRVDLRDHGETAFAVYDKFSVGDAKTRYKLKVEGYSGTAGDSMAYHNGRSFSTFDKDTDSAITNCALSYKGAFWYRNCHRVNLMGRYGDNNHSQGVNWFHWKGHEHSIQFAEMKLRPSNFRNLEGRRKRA
Summary of the method: (§1)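 SPR at 25 °C: IgG4 (S241P) from culture supernatant, diluted 1:2 in 2×PBS-T, captured on anti-human Fc surface; antigen injected at a fixed 15 nM (human and mouse TNC rCd4-His-FBG) or 100 nM (human TNR rCd4-His-FBG), 30 μl/min. Association 1 min, dissociation 5 min; off-rates from reference-subtracted 1:1 fits.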

[3] = target: T3, mouse tenascin-C rCd4-His-FBG (rat; mouse, UniProt P05540 207-392, limits assumed); assay: as above
T3 construct: domain: domains 3 and 4; C-terminal FBG fusion; biotinylated in the ELISA screen; also called Mu TNC; mouse TNC rCd4-His-FBG; not shown: 6His tag
T3 sequence (chain (part 1 of 2)): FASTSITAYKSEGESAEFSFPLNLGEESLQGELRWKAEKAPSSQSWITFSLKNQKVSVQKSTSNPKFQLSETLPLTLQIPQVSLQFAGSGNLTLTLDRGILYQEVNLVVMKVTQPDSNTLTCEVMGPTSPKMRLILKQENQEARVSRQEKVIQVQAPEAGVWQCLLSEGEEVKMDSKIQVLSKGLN
T3 sequence (chain (part 2 of 2)): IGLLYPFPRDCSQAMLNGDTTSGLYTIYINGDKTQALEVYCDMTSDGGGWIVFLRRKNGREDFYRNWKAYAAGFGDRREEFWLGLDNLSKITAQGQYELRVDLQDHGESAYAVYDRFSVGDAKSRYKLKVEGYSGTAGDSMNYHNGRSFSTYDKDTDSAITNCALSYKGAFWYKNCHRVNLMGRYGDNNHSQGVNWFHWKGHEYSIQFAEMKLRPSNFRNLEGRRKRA
Summary of the method: as §1

human Fc-His-FBG = target: T4, human Fc-His-FBG (human, UniProt P24821 1974-2201); assay: plate assay: inhibition of binding of 100 nM Fc-His-TNC-FBG to coated TLR4, against isotype control
T4 construct: C-terminal FBG fusion to human IgG1 Fc; also called Fc-His-huFBG; huFc-His-FBG; not shown: human IgG1 Fc tag; 6His tag
T4 sequence: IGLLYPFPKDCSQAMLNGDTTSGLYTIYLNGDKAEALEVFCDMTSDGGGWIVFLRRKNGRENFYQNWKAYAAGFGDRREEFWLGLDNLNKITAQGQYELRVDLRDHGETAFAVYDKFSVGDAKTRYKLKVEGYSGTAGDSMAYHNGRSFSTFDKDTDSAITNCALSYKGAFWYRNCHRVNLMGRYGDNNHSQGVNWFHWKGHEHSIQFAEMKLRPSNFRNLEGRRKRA
Protocol: FIG. 16B. […] Detection was carried out by successive incubation of antibody directed against the Fc portion of the protein, an anti-mouse HRP conjugated secondary antibody and TMB substrate.
Detection was carried out by successive incubation of antibody directed against the Fc portion of the protein, an anti-mouse HRP conjugated secondary antibody and TMB substrate.

[4] = target: T2, human tenascin-C rCd4-His-FBG; assay: SPR, captured purified IgG4, 37 C
[5] = target: T1, human tenascin-R rCd4-His-FBG; assay: SPR off-rate screen, captured IgG4 supernatant, 25 C; off-rate screen, IgG4 in culture supernatant, 100 nM TNR antigen, 25 C
Protocol: The 31 scFv of interest were sub-cloned into a human IgG4 expression vector for generation of antibodies as human IgG4 with a hinge-stabilising mutation (S241P; Angal et al, 1993). […] Briefly, surface plasmon resonance (SPR) experiments were performed using a BIAcore T100 instrument and followed the protocol according to the Human antibody capture kit protocol (GE, BR-1008-39). For off-rate screening, 10,000 response units (RU) of anti-human Fc IgG (GE, BR-1008-39) was immobilised on flow-cells (FC1 and FC2) of a Series 5 CM5 dextran sensor chip (BR-1005-30) using EDC/NHS cross-linking chemistry according to the amine coupling kit protocol (GE, BR-1000-50). Culture supernatants containing expressed IgG4 were diluted 1:2 with 2×PBS-T and injected into FC2 (flowrate 5 μl/min, 60 s contact time) to enable antibody capture at 25° C. […] A fixed concentration of antigen (15 nM of human and mouse TNC rCd4-His-FBG and 100 nM of human TNR rCd4-His-FBG) was injected with a flow-path via FC 1 (reference flow cell) and FC 2 (antibody capture flow cell), with a flow rate of 30 μl/min, and the association and dissociation phases measured over 1 and 5 min time periods, respectively. […] Off rates were determined by reference cell subtraction and fitting the sensogram experimental data assuming a 1:1 interaction using BIAevaluation software (GE, BR-1005-97).

B1: 165_13_C3 human IgG4 (antibody, V domains shown)
VH: QVQLVESGGGLVQPGRSLRLSCAASGFTFDDYAMHWVRQAPGKGLEWVSGISGSGGSTYYADSVKGRFTISRDNAKNSLYLQMNSLRAEDTALYYCAKSYQSDEDAFDIWGQGTMVTVSS
VL: DIQMTQSPASLPTPVGDRVTITCRASQYIQGFLNWYQQKPGKAPKLLIYDASNLETGVPSRFSGSGSGTDFTLTISSLQPEDFATYYCQQSYSTPQTFGQGTKVDIKR
notes: also called IgG4 C3; C3 IgG4 MAb
For B1, the Kd [1] was 35.8 nM, the koff [1] was 0.0431 s⁻¹ and the kon [1] was 1.2e+06 M⁻¹ s⁻¹. For the same binder, the koff [2] was less than 1e-05 s⁻¹, the koff [3] was 3.3e-06 s⁻¹ and the IC50 (human Fc-His-FBG) was 44.5 nM. It also gave a Kd [4] of 0.072 nM, a koff [4] of 0.00083 s⁻¹ and a kon [4] of 1.16e+07 M⁻¹ s⁻¹. The koff [5] was 0.012 s⁻¹.
